# Measured values published in US20260104418A1.
# Assays:
# [1] = biological target: Claudin-18.1 (CLDN18.1) (human) (UniProt P56856); test: FACS titration of AF647-labelled IgG on HEK293T CLDN18.1 cells
# mouse CLDN18.2 (mouse) = mouse CLDN18.2 (mouse) (UniProt P56857); test: FACS titration of AF647-labelled IgG on HEK293T mouse CLDN18.2 cells
# Sequence of Claudin-18.1 (CLDN18.1) (human) (P56856 whole entry): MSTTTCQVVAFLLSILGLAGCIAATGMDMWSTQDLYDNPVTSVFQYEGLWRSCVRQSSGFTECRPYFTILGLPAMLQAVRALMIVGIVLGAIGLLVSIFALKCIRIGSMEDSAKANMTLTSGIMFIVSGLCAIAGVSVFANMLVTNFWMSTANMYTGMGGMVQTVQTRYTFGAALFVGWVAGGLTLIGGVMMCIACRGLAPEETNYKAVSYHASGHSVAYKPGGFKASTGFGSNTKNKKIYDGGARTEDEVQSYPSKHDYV
EC50 [1] [nM],EC50 (mouse CLDN18.2 (mouse)) [nM],Binder
,96.8,"Ab 432 (antibody, V domains shown) VH: QIQLQQSGAELARPRASVKLSCKASGYTFTSDVISWVKQRPGQGLEWIGESYLRNGNTYYNENFKGKATLTADKSSSTAYMELRSLTSEDSAVYFCARSYYGNSFAYWGQGTLVTVSA VL: DIVMTQSPSSLTVTAREKVTMNCKSTQSLLNSGNQKNYLTWYQQKPGQPPKLLIYWASTRESGVPDRFTGSGSGTDFTLTISSVQAEDLAVYYCQNAYYYPFTFGGGTKLEIK"
,591,"Ab 416 (antibody, V domains shown) VH: EFQLQQSGPELVKPGASVKISCKASVYSFTGYNMNWVKQSNGKSLEWIGVINPNYGNTNYNQRFKGKATLTVDQSSSTAYMQLNSLTSEDSAVYYCARSEDYYNIRGASWGQGTLVTVSA VL: QIVLTQSPAIMSASPGQKVTITCSASSTINYMHWYQQKLGSSPKLWIYDTSKLAPGVPARFSGSGSGTSYSLTISSMEAEDAASYFCHQWSSYPPTFGSGTKLELK"
,1040,"Ab 409 (antibody, V domains shown) VH: QVQLQQSGAELARPGASVKLSCKASGYTFTSYGISWVKQRTGQGLEWIGEISPRSGNTYYNEKFKGKATLTADKSSSTAYMELRSLTSEDSAVYFCATGVITTVIPTDWYFDVWGTGTTVTVSS VL: DIQMTQTTSSLSASLGDRVTISCRASQDISNYLNWYQQKPDGTVKLLIYYTSRLHSGVPSRFSGSGSGTDYSLTISNLEPEDIATYYCQHYSKLPPTFGSGTKLEIK"

# Further lines, the binder ahead of its results:
Binder,EC50 [1] [nM],EC50 (mouse CLDN18.2 (mouse)) [nM]
"Ab 360 (antibody, V domains shown) VH: VVQLQQSGPELVKPGASVKMSCKASGYTFTSYLMHWVRQKPGLGLDWIGYINPYNDGTNYNAKFIDKATLTSDKTSSTAYMELSSLTSEDSAIYYCTRGDYWGQGTSVTVSS VL: DIVMTQSPSSLAVTAGEQVTMSCKSSQSLLNSGNQKNYLTWYQQKPGQPPKLLIYWASIRQSGVPDRFTGSGSGTDFTLTISSVQAEDLAVYYCLNDYGFPLTFGAGTKLELK",1760,57.7
"Ab 347 (antibody, V domains shown) VH: EVQLQQSGPELVKPGASVKMSCKASGYTFTSYLIHWVKQKPGQGLEWIGYINPYNDATYYNEKFKAKATLTSDKSSSTAYMELSSLTSEDTAIYYCTRGDYWSQGTSVTVSS VL: DIVMTQSPSSLTVTAGEKVTMSCKSSQSLLNSGNQKNYLTWYQQKPGQPPKLLIYWASTRQSGVPDRFTGSGSGTDFTLTISSVQAEDLTVYYCLNDYSFPLTFGAGTKLELK",1230,1350
"Ab 301 (antibody, V domains shown) VH: VVQLQQSGPELVKPGASVKMSCKASGYTFTSFLIHWVRQKPGLGLEWIGYINPYDYGINYNVKFMDKVTLTSDKTSSTAYMELSSLTSADSAIYYCTRGDYWGQGTSVIVSS VL: DIVMTQSPSSLAVTTGEQVTMNCKSSQSLLNSGNQKNYLTWYQQKTGQSPKLLIYWASTRQSGVPDRFTGSGSGTDFTLTISSVQAEDLAVYYCLNDYGFPLTFGAGTKLELK",675,1610
"Ab 331 (antibody, V domains shown) VH: EVQLQQSGPELVKPGASVRMSCKASGYTFTSYIMHWVKQKPGQGPEWMGYINPYNDGTNYNEKFKDKATLTSDKSSSTAYMDLSSLTSEDSAVYYCTRGDYWGQGTSVTVSS VL: DIVMTQSPSSLTVTAGEKVTMSCKSSQSLLNSGNQKNYLTWYQQKPGQPPKLLFYWASTKKSGVPDRFTGSGSRTDFTLTISSVQAEDLAVYYCLNDYSFPLTFGAGTKLELK",1680,810
"Ab 307 (antibody, V domains shown) VH: DVKLVESGGGLVKPGGSLKLSCAASGFTFSSYTMSWVRQTPEKRLEWVATIIIGGSYTYYPDSVKGRFTISRDNAKNTLYLQMSSLKSEDTAMYYCTRLVKGNAMDYWGQGTSVAVSS VL: DIVMTQSPSSLTVTTGEKVTMSCKSSQSLLNSGNQKNYLSWYQQIPGQPPKLLFYWASTRESGVPDRFTGSGSGTDFTLTISNVQAEDLAVYYCQNDYSYPFTFGAGTKLELR",,68.8
"Ab 358 (antibody, V domains shown) VH: VVQLVESGGDFVQPGGSRKLSCAVSGFTFSSFGMHWVRQAPEKGLEWVAYISSGTTNIYYADTVKGRFTVSRDNPKNSLFLHMTSLRSEDTAMYYCVRSGYYGNSLDYWGQGTPLTVSS VL: DIVMTQSPSSLTVTAGEKVTMSCKSSQSLFNSGNQRNYLTWYQQKPGQPPKLLIYWASTRESGVPDRFTGSGSGTGFTLTISSVQAEDLAFYYCQNVYIYPLTFGLGTKLELR",1520,40.6
